Key:
EBNA1 DBD;OCT2 DBD [1] = target: T1, EBNA1 DBD;OCT2 DBD (Epstein-Barr virus;human?, UniProt P03211;P09086-3 459-607;175-345, |); assay: HTRF; 15 nM His-EBNA1, 2.5-40 nM unlabeled OCT2; OCT2 stimulates EBNA1 binding; Buffer not given (EMSA as in cited ref. 32; HTRF and ALPHA in similar conditions; 1 h incubation for HTRF); conditions: protein: recombinant;recombinant; tags: His;none (His-SUMO removed by SUMO protease); copies: 1;1; label: 5' biotin, streptavidin Eu3+ cryptate
His-OCT2 DBD (HTRF) = target: T2, His-OCT2 DBD (HTRF) (UniProt P09086-3 175-345); assay: HTRF; 0-80 nM OCT2; Buffer not given (EMSA as in cited ref. 32; HTRF and ALPHA in similar conditions; 1 h incubation for HTRF); conditions: protein: recombinant; label: 5' biotin, streptavidin Eu3+ cryptate
T2 sequence: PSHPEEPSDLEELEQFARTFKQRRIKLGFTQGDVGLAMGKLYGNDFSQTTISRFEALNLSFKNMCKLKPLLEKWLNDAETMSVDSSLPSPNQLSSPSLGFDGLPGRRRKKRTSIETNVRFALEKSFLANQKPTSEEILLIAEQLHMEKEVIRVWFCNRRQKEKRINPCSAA

EBNA1 DBD;OCT2 DBD [2] = target: T1, EBNA1 DBD;OCT2 DBD; assay: EMSA; EBNA1 titration with 40 nM OCT2 or OCT2 titration with 15 nM EBNA1; saturated complex distinct from EBNA1 alone; Buffer not given (EMSA as in cited ref. 32; HTRF and ALPHA in similar conditions; 1 h incubation for HTRF); conditions: protein: recombinant;recombinant; tags: His;none (His-SUMO removed by SUMO protease); copies: 1;1; label: 32P
OCT2 DBD = target: T3, OCT2 DBD (UniProt P09086-3 175-345); assay: EMSA; single major species at 40 nM OCT2, larger complex at higher concentration; Buffer not given (EMSA as in cited ref. 32; HTRF and ALPHA in similar conditions; 1 h incubation for HTRF); conditions: protein: recombinant; tags: none (His-SUMO removed by SUMO protease); label: 32P
T3 sequence: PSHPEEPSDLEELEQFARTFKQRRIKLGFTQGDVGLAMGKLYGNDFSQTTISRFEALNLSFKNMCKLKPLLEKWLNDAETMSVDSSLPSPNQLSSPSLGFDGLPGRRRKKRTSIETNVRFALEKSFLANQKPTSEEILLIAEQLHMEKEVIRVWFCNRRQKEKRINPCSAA

EBNA1 DBD = EBNA1 DBD (Epstein-Barr virus, UniProt P03211 459-607); assay: EMSA; no OCT2; low nanomolar affinity, two major species; Buffer not given (EMSA as in cited ref. 32; HTRF and ALPHA in similar conditions; 1 h incubation for HTRF); conditions: protein: recombinant; tags: His; label: 32P
Sequence of EBNA1 DBD (P03211 459-607): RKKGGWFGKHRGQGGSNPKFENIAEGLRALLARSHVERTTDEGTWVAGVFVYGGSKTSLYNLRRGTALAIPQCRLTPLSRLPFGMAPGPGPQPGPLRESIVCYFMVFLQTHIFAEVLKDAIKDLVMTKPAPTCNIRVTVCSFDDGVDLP

T1 sequence (P03211 459-607, one chain of several): as the sequence (P03211 459-607) above

B1: 2xFR (60 bp), biotin (dsDNA)
DNA 1: ATTAGGATAGCCTATGCTACCCAGATATAGATTAGGATAGCATATGCTACCCAGATATAG
DNA 2: CTATATCTGGGTAGCATATGCTATCCTAATCTATATCTGGGTAGCATAGGCTATCCTAAT
EBNA1 DBD;OCT2 DBD [1]
  binding result: binds
His-OCT2 DBD (HTRF)
  binding result: binds

B2: 2xFR (60-mer), 32P (dsDNA)
DNA 1: ATTAGGATAGCCTATGCTACCCAGATATAGATTAGGATAGCATATGCTACCCAGATATAG
DNA 2: CTATATCTGGGTAGCATATGCTATCCTAATCTATATCTGGGTAGCATAGGCTATCCTAAT
EBNA1 DBD;OCT2 DBD [2]
  binding result: binds
OCT2 DBD
  binding result: binds
EBNA1 DBD
  binding result: binds

— paper PMC4934754, “HCF1 and OCT2 Cooperate with EBNA1 To Enhance OriP-Dependent Transcription and Episome Maintenance of Latent Epstein-Barr Virus”
